According to PMC4881023, “SALM5 trans-synaptically interacts with LAR-RPTPs in a splicing-dependent manner to regulate synapse development” (Scientific Reports, 2016):
Values belong to the molecule of their own block, whether it stands above or below them.

Experiments:
[1] = target: SALM5 (untagged) (not stated (mouse and human SALM5 are named for other constructs)) (UniProt Q8BXA0); assay: quantitative cell-surface binding assay (HRP anti-human Fc, Scatchard analysis); apparent; SALM5 (untagged)-expressing HEK293T cells in 96-well plates, fixed, incubated with increasing concentrations of LAR-Ecto-Fc for 1 hour, HRP-conjugated anti-human-Fc, TMB colour reaction
SALM5 (untagged) (not stated (mouse and human SALM5 are named for other constructs)), sequence (Q8BXA0 18-719): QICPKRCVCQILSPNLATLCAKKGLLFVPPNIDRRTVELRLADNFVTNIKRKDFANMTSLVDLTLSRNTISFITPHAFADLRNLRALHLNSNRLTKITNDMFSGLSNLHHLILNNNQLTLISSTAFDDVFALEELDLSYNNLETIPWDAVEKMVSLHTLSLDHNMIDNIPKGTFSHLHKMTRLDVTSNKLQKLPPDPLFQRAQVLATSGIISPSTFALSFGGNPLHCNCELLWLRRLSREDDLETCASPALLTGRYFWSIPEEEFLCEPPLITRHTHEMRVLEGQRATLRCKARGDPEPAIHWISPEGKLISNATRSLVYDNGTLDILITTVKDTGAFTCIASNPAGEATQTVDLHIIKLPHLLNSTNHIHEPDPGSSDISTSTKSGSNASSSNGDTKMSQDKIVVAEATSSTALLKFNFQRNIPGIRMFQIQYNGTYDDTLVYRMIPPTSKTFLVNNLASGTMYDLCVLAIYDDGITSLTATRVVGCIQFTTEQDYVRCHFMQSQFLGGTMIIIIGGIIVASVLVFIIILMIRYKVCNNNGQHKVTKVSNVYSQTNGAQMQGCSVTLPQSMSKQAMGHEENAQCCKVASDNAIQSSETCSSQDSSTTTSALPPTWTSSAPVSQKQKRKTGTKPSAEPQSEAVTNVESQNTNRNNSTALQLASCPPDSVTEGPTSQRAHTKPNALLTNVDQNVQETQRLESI

[2] = target: T1, LAR-Ig (Ig1-3)-Fc of the BLI (human, UniProt P10586 30-318); assay: BLI; BLItz; 10 μM LAR-Ig (Ig1-3)-Fc or LAR-FN12-Fc immobilised on protein A biosensors for 120 s, hybrid SALM5-Ecto as analyte at three concentrations; 20 mM HEPES, 50 mM NaCl, pH 7.0; global fit; details: both partners purified
T1 chain: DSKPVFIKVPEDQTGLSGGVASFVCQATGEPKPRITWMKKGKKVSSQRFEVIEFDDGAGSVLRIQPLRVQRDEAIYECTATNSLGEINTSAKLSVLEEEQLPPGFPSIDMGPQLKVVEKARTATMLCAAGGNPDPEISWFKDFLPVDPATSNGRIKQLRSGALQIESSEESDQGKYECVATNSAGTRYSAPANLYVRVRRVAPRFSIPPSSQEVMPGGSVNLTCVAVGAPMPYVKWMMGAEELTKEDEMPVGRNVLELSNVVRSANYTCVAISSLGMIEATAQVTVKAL

hySALM5-Ecto-Fc = target: T2, hySALM5-Ecto-Fc ( | human, UniProt Q96NI6 59-374); assay: BLI; BLItz; hySALM5-Ecto-Fc pre-bound to protein A biosensors, LAR-Ig-FN12 as analyte at three concentrations; 20 mM HEPES, 50 mM NaCl, pH 7.0; global fit; details: both partners purified
T2 chain: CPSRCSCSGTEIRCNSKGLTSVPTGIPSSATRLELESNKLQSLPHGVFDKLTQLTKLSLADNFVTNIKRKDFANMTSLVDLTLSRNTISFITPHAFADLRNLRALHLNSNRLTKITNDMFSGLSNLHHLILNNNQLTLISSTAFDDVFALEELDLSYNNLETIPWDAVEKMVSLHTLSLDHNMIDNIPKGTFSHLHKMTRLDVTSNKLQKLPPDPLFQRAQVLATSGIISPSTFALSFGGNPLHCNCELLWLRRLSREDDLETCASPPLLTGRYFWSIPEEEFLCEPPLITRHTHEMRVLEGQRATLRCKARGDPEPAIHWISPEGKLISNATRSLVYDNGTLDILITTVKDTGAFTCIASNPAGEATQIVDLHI

Kd [1]: 0.00896 µM
Molecule: LAR-Ecto-Fc (meA^− and meB^−) (from UniProt P10586 30-1263) (Fc fusion)

Kd [2]: 16.6 µM
B1: hySALM5-Ecto (hybrid SALM5, LRR + Ig domains), tag cleaved (domain or fragment)
chain: T2 chain
modifications: VLRB.61 printed as M1-L82; signal peptide (1-23) taken as removed on secretion; hagfish accession not among the candidates; LVPR residue left by thrombin cleavage omitted / A-B- form taken as stated …

Kd (hySALM5-Ecto-Fc): 38.5 µM
B2: LAR-Ig-FN12 (Ig1-3-FNIII12, aa 27A–513A) (domain or fragment)
chain: AHGDSKPVFIKVPEDQTGLSGGVASFVCQATGEPKPRITWMKKGKKVSSQRFEVIEFDDGAGSVLRIQPLRVQRDEAIYECTATNSLGEINTSAKLSVLEEEQLPPGFPSIDMGPQLKVVEKARTATMLCAAGGNPDPEISWFKDFLPVDPATSNGRIKQLRSGALQIESSEESDQGKYECVATNSAGTRYSAPANLYVRVRRVAPRFSIPPSSQEVMPGGSVNLTCVAVGAPMPYVKWMMGAEELTKEDEMPVGRNVLELSNVVRSANYTCVAISSLGMIEATAQVTVKALPKPPIDLVVTETTATSVTLTWDSGNSEPVTYYGIQYRAAGTEGPFQEVDGVATTRYSIGGLSPFSEYAFRVLAVNSIGRGPPSEAVRARTGEQAPSSPPRRVQARMLSASTMLVQWEPPEEPNGLVRGYRVYYTPDSRRPPNAWHKHNTDAGLLTTVGSLLPGITYSLRVLAFTAVGDGPPSPTIQVKTQQGVPA
modifications: splice form not given; A-B- form taken because the printed limits fit the P10586 numbering (no meA, no meB) / C-terminal Fc carrier omitted (the Fc would dimerise the chain); VLRB.61 signal peptide
